In the RNAGym collection of RNA variant scans (doi:10.1093/nar/gkz1192):

B1: CPEB3 Ribozyme (parent)
chain: UAACAGGGGGCCACAGCAGAAGCGUUCACGUCGCAGCCCCUGUCAGAUUCUGGUGAAUCUGCGAAUUCUGCUGUAUAUCUC

Variants of: B1
Test: self-cleavage, relative activity (ratio to wild type); higher = more cleavage; in vitro, sequencing
Summary of the method: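 After error-prone PCR and barcoding, CPEB3 ribozyme mutant libraries were transcribed with T7 RNA polymerase at 37°C for 5 hours, then given 15 min with DNase I before an EDTA stop, and they cleaved during both steps. Reverse transcription with template switching preceded Illumina sequencing. Relative activity divides a variant's cleaved/total read fraction by the unmutated ribozyme's. At least 5 reads were required per variant, and three batches were averaged.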
In the case of G10C A45G, the self-cleavage is reported as 0.13.
For G10C A45U, the self-cleavage was 0.16.
For G10C A47U, the self-cleavage was 0.15.
In the case of G10C A56G, the self-cleavage is reported as 0.15.
In the case of G10C A57G, the self-cleavage is reported as 0.21.
In the case of G10C A64G, the self-cleavage is reported as 0.25.
G10C A64U gave a self-cleavage of 0.15.
Work on G10C A65G yielded a self-cleavage of 0.33.
Work on G10C A75G yielded a self-cleavage of 0.24.
Variant G10C C11A has a self-cleavage of 0.33.
G10C C12A showed a self-cleavage of 0.44.
With G10C C12U the self-cleavage was 0.1.
In the case of G10C C14U, the self-cleavage is reported as 0.5.
G10C C27U gave a self-cleavage of 0.15.
In the case of G10C C44U, the self-cleavage is reported as 0.18.
In the case of G10C C71A, the self-cleavage is reported as 0.12.
G10C G16A gave a self-cleavage of 0.12.
G10C G24U gave a self-cleavage of 0.15.
Variant G10C G33A has a self-cleavage of 0.16.
Work on G10C G42U yielded a self-cleavage of 0.16.
Variant G10C G52A has a self-cleavage of 0.2.
With G10C G53A the self-cleavage was 0.26.
Variant G10C G73A has a self-cleavage of 0.35.
Variant G10C U25C has a self-cleavage of 0.07.
For G10C U26C, the self-cleavage was 0.21.
G10C U26G gave a self-cleavage of 0.39.
G10C U41A showed a self-cleavage of 0.33.
For G10C U41C, the self-cleavage was 0.1.
G10C U43A showed a self-cleavage of 0.38.
For G10C U43C, the self-cleavage was 0.13.
G10C U48C showed a self-cleavage of 0.22.
With G10C U49A the self-cleavage was 0.2.
Work on G10C U49C yielded a self-cleavage of 0.22.
Variant G10C U49G has a self-cleavage of 0.17.
Variant G10C U51C has a self-cleavage of 0.22.
In the case of G10C U54A, the self-cleavage is reported as 0.26.
Work on G10C U54C yielded a self-cleavage of 0.39.
In the case of G10C U58C, the self-cleavage is reported as 0.19.
Variant G10C U60A has a self-cleavage of 0.12.
In the case of G10C U66A, the self-cleavage is reported as 0.2.
With G10C U66C the self-cleavage was 0.15.
Variant G10C U67A has a self-cleavage of 0.17.
Variant G10C U67C has a self-cleavage of 0.37.
G10C U69A gave a self-cleavage of 0.3.
For G10C U69C, the self-cleavage was 0.12.
Work on G10C U69G yielded a self-cleavage of 0.16.
For G10C U72A, the self-cleavage was 0.14.
G10C U74A gave a self-cleavage of 0.26.
For G10C U74G, the self-cleavage was 0.26.
Variant G10C U76C has a self-cleavage of 0.19.
G10C U78A showed a self-cleavage of 0.09.
G10C U78C gave a self-cleavage of 0.17.
With G10C U80C the self-cleavage was 0.31.
G10U showed a self-cleavage of 0.23.
For G10U A13G, the self-cleavage was 0.11.
G10U A13U gave a self-cleavage of 0.1.
With G10U A15G the self-cleavage was 0.18.
G10U A20G showed a self-cleavage of 0.36.
For G10U A21C, the self-cleavage was 0.06.
In the case of G10U A21G, the self-cleavage is reported as 0.08.
Variant G10U A28G has a self-cleavage of 0.17.
Variant G10U A35G has a self-cleavage of 0.32.
Work on G10U A35U yielded a self-cleavage of 0.05.
G10U A45C gave a self-cleavage of 0.14.
For G10U A47G, the self-cleavage was 0.21.
In the case of G10U A56G, the self-cleavage is reported as 0.16.
In the case of G10U A56U, the self-cleavage is reported as 0.08.
Variant G10U A57G has a self-cleavage of 0.23.
With G10U A57U the self-cleavage was 0.07.
Work on G10U A64G yielded a self-cleavage of 0.07.
For G10U A64U, the self-cleavage was 0.35.
Variant G10U A65G has a self-cleavage of 0.19.
In the case of G10U A77G, the self-cleavage is reported as 0.35.
With G10U A77U the self-cleavage was 0.07.
G10U C32U showed a self-cleavage of 0.21.
Work on G10U C37A yielded a self-cleavage of 0.72.
G10U C38G gave a self-cleavage of 0.17.
With G10U C40U the self-cleavage was 0.06.
Work on G10U C50U yielded a self-cleavage of 0.17.
For G10U C62U, the self-cleavage was 0.13.
In the case of G10U G33A, the self-cleavage is reported as 0.23.
G10U G33U gave a self-cleavage of 0.1.
G10U G52U gave a self-cleavage of 0.09.
Variant G10U G53U has a self-cleavage of 0.24.
Variant G10U U25C has a self-cleavage of 0.21.
For G10U U26A, the self-cleavage was 0.32.
G10U U26C gave a self-cleavage of 0.28.
G10U U41A showed a self-cleavage of 0.22.
With G10U U43C the self-cleavage was 0.34.
G10U U48A gave a self-cleavage of 0.35.
G10U U49A gave a self-cleavage of 0.31.
For G10U U49C, the self-cleavage was 0.24.
G10U U49G gave a self-cleavage of 0.14.
In the case of G10U U51C, the self-cleavage is reported as 0.4.
G10U U54C gave a self-cleavage of 0.34.
G10U U58C gave a self-cleavage of 0.34.
For G10U U60C, the self-cleavage was 0.38.
Variant G10U U60G has a self-cleavage of 0.31.
With G10U U66A the self-cleavage was 0.18.
Variant G10U U67C has a self-cleavage of 0.12.
Work on G10U U69A yielded a self-cleavage of 0.18.
With G10U U69C the self-cleavage was 0.07.
With G10U U72C the self-cleavage was 0.22.
For G10U U74C, the self-cleavage was 0.46.
In the case of G10U U78C, the self-cleavage is reported as 0.39.
In the case of G10U U80C, the self-cleavage is reported as 0.23.
C11A showed a self-cleavage of 0.37.
For C11A A13G, the self-cleavage was 0.09.
C11A A13U gave a self-cleavage of 0.34.
C11A A15G gave a self-cleavage of 0.21.
Work on C11A A15U yielded a self-cleavage of 0.37.
C11A A18C gave a self-cleavage of 0.4.
C11A A18G showed a self-cleavage of 0.28.
Work on C11A A18U yielded a self-cleavage of 0.43.
Variant C11A A20G has a self-cleavage of 0.21.
C11A A21G showed a self-cleavage of 0.24.
Work on C11A A28G yielded a self-cleavage of 0.1.
C11A A28U gave a self-cleavage of 0.67.
C11A A35G showed a self-cleavage of 0.46.
C11A A35U showed a self-cleavage of 0.1.
With C11A A45G the self-cleavage was 0.41.
C11A A47G showed a self-cleavage of 0.51.
In the case of C11A A47U, the self-cleavage is reported as 0.27.
In the case of C11A A56G, the self-cleavage is reported as 0.34.
C11A A56U showed a self-cleavage of 0.12.
In the case of C11A A57G, the self-cleavage is reported as 0.33.
C11A A64G gave a self-cleavage of 0.21.
For C11A A64U, the self-cleavage was 0.06.
Variant C11A A65G has a self-cleavage of 0.26.
In the case of C11A A65U, the self-cleavage is reported as 0.18.
For C11A A75G, the self-cleavage was 0.36.
For C11A A75U, the self-cleavage was 0.4.
Work on C11A C17U yielded a self-cleavage of 0.09.
C11A C23G showed a self-cleavage of 0.13.
For C11A C23U, the self-cleavage was 0.06.
With C11A C44A the self-cleavage was 0.13.
In the case of C11A C62U, the self-cleavage is reported as 0.
C11A C68A showed a self-cleavage of 0.14.
For C11A C81G, the self-cleavage was 0.39.
C11A C81U showed a self-cleavage of 0.52.
In the case of C11A G24A, the self-cleavage is reported as 0.09.
With C11A G33A the self-cleavage was 0.07.
With C11A G46C the self-cleavage was 0.13.
Variant C11A G73A has a self-cleavage of 1.07.
Variant C11A G73C has a self-cleavage of 0.87.
C11A U25A showed a self-cleavage of 0.45.
Variant C11A U25C has a self-cleavage of 0.25.
C11A U26A showed a self-cleavage of 0.3.
Variant C11A U26C has a self-cleavage of 0.18.
Work on C11A U31A yielded a self-cleavage of 0.3.
For C11A U31C, the self-cleavage was 0.23.
Work on C11A U41A yielded a self-cleavage of 0.33.
Work on C11A U41C yielded a self-cleavage of 0.58.
C11A U48C gave a self-cleavage of 0.32.
Variant C11A U48G has a self-cleavage of 0.06.
With C11A U49A the self-cleavage was 0.11.
For C11A U49G, the self-cleavage was 0.3.
Work on C11A U51C yielded a self-cleavage of 0.38.
Work on C11A U54A yielded a self-cleavage of 0.43.
With C11A U54C the self-cleavage was 0.17.
With C11A U54G the self-cleavage was 0.21.
C11A U58C gave a self-cleavage of 0.43.
C11A U60C gave a self-cleavage of 0.2.
C11A U66C showed a self-cleavage of 0.12.
With C11A U67A the self-cleavage was 0.17.
With C11A U67C the self-cleavage was 0.09.
For C11A U69C, the self-cleavage was 0.17.
